Test results taken from patent US20070066521, “Short RNA-binding proteins” (published 2007).

T1: S-AC4 (SLCMV AC4) (Sri Lankan cassava mosaic virus)
T1 chain: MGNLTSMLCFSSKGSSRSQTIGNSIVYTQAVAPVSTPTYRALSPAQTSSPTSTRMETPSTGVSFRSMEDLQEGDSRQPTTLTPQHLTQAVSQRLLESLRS

T2: E-AC2 (EACMCV AC2) (East African cassava mosaic Cameroon …)
T2 chain: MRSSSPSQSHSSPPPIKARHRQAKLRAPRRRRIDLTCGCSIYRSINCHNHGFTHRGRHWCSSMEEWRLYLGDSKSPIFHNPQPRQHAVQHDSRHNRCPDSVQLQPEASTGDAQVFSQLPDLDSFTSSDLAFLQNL

T3: E-AC4 (EACMCV AC4) (East African cassava mosaic Cameroon …)
T3 chain: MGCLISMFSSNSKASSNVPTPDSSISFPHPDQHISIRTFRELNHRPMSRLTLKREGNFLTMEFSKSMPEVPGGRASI

B1: ta-siRNA siR255::siR255* duplex (dsRNA)
RNA 1: AUGCGAUACAACCUGAAUCUU
RNA 2: GAGAUUCAGGUUGCAUCGCGC
B2: lin-4 (ssRNA)
RNA: UCCCUGAGACCUCAAGUGUGA
B3: ta-siRNA siR255 (ssRNA)
RNA: AUGCGAUACAACCUGAAUCUU
B4: miR165 (ssRNA)
RNA: UCGGACCAGGCUUCAUCCCCC
B5: miR159* (ssRNA)
RNA: GAGCUCCUUAAAGUUCAAACA
B6: DmiR-165::DmiR-165* DNA duplex (dsDNA)
DNA 1: TCGGACCAGGCTTCATCCCCC
DNA 2: GGGGGATGAAGCCTGGTCCGA
B7: DmiR-165 DNA (ssDNA)
DNA: TCGGACCAGGCTTCATCCCCC
B8: 2'-O-methyl miR165 (ssRNA)
RNA: UCGGACCAGGCUUCAUCCCCC
modifications: 2'-OMe at last (3') nucleotide
B9: pre-miR159 first strand (ssRNA)
RNA: UAAAAAAGGAUUUGGUUAUAUGGAUUGCAUAUCUCAGGAGCUUUAACUUGCCCUGUUAAUGCUUUUACUCUUCUUUGGCUUGAAGGGAGCUCUAC
B10: pre-miR159 duplex (dsRNA)
RNA 1: B9 RNA
RNA 2: GUAGAGCUCCUUAAAGUUCAAACAUGAGUUGAGCAGGGUAAAGAAAAGCUGCUAAGCUAUGGAUCCCAUAAGCCCUAAUCCUUGUAAAG
B11: miR34 (ssRNA)
RNA: AGGCAGUGUGGUUAGCUGGUUG
B12: miR159 (ssRNA)
RNA: UUUGGAUUGAAGGGAGCUCUA

Legend:
S-AC4 (SLCMV AC4) [1] = biological target: T1, S-AC4 (SLCMV AC4); test: EMSA; details: tags: GST fusion (pET41a), Ni-NTA purified; label: 5'-32P
S-AC4 (SLCMV AC4) [2] = biological target: T1, S-AC4 (SLCMV AC4); test: EMSA; text cites SEQ ID NO:29 (DNA probe); RNA oligo listed as SEQ 38; details: tags: GST fusion (pET41a), Ni-NTA purified; label: 5'-32P
S-AC4 (SLCMV AC4) [3] = biological target: T1, S-AC4 (SLCMV AC4); test: EMSA; competed by 10-, 50-, 100-fold unlabelled miR165; details: tags: GST fusion (pET41a), Ni-NTA purified; label: 5'-32P
E-AC2 (EACMCV AC2) = biological target: T2, E-AC2 (EACMCV AC2); test: EMSA; details: tags: GST fusion (pET41a), Ni-NTA purified; label: 5'-32P
S-AC4 (SLCMV AC4) [4] = biological target: T1, S-AC4 (SLCMV AC4); test: EMSA; as efficient as unmodified; details: tags: GST fusion (pET41a), Ni-NTA purified; label: 5'-32P
E-AC4 (EACMCV AC4) = biological target: T3, E-AC4 (EACMCV AC4); test: EMSA; data not shown; details: tags: pET41a, Ni-NTA purified; label: 5'-32P

Row | Binder | binding result (S-AC4 (SLCMV AC4) [1]) | also measured
1 | B1 | binds | –
2 | B2 | binds | –
3 | B3 | – | binding result (S-AC4 (SLCMV AC4) [2]): binds
4 | B4 | – | binding result (S-AC4 (SLCMV AC4) [3]): binds
5 | B5 | – | binding result (E-AC2 (EACMCV AC2)): no binding
6 | B6 | no binding | –
7 | B7 | no binding | –
8 | B8 | – | binding result (S-AC4 (SLCMV AC4) [4]): binds
9 | B9 | no binding | –
10 | B10 | no binding | –
11 | B11 | binds | –
12 | B12 | binds | binding result (E-AC2 (EACMCV AC2)): no binding; binding result (E-AC4 (EACMCV AC4)): no binding
